Experimental findings from patent US20030054360 are described below.

For data set [1], the target named is T1, UDP-glucuronosyl transferase (UGT) 1A1 (UniProt P22309).
T1 sequence: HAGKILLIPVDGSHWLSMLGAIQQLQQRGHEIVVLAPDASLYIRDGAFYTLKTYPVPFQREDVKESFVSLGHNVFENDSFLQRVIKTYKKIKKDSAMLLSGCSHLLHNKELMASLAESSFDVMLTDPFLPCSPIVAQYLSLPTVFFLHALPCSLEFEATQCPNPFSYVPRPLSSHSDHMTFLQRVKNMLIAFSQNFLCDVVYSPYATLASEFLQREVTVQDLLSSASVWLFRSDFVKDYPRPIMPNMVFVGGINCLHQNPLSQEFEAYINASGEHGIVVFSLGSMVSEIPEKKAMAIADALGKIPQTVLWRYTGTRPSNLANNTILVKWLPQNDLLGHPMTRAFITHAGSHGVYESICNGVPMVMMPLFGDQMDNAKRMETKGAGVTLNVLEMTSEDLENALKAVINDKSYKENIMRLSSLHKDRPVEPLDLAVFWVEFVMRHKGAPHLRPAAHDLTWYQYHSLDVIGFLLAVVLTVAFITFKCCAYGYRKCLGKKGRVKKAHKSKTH
In words: filter. Particulars: 5-BrdU replaces T; apparent photocrosslink KD; plateau 70%.

The next data set deals with T2, Interleukin-4 (UniProt P05112).
T2 sequence: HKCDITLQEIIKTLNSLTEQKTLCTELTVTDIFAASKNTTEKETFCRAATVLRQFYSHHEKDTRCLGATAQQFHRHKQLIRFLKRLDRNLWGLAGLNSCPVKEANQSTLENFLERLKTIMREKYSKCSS
Particulars: 5-BrdU replaces T; photocrosslinking rate at 25 nM target; KD printed as ??

The next data set addresses T3, UGT 1A3 (UniProt P35503).
T3 sequence: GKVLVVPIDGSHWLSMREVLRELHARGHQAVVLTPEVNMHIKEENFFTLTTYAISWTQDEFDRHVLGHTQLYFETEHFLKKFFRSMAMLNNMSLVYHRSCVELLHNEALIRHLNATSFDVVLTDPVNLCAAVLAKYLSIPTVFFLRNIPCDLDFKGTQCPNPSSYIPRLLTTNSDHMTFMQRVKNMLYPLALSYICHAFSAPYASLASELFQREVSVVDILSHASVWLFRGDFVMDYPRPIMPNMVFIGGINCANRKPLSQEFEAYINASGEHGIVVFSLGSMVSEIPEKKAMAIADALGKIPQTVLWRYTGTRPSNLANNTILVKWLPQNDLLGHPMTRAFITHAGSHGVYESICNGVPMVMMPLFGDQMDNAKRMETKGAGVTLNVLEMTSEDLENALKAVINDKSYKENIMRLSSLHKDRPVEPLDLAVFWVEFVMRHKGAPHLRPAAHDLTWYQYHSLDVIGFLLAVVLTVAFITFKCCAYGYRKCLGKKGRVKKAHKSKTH
The data set can be described thus: filter. Particulars: 5-BrdU replaces T; apparent photocrosslink KD; plateau 70%.

The next data set addresses T4, UGT 1A10 (UniProt Q9HAW8).
T4 sequence: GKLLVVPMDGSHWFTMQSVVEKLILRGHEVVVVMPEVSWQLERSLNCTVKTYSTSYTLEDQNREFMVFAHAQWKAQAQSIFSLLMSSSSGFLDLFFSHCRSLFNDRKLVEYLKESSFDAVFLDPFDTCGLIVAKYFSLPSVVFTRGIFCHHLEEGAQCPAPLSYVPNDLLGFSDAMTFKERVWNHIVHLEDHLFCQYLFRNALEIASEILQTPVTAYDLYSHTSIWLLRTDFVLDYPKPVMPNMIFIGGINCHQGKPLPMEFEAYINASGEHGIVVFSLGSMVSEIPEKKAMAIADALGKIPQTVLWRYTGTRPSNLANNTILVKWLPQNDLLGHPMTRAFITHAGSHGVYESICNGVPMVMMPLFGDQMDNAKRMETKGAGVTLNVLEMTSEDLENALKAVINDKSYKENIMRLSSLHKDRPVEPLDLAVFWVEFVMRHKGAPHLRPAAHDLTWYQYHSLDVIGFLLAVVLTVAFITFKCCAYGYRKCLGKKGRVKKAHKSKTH
The data set can be described thus: filter. Particulars: 5-BrdU replaces T; apparent photocrosslink KD; plateau 72%.

Turning to “ATATATATGGGAGGACGATGCGGCACCTGATTTCTACCCTTTACTTTGTGTGGCAGACGACGAGCGGGAAAAAAAA [UGT 1A1 pool 319 clone 73]”, the Kd in data set [1] came to 22 nM.

Sequence “ATATATATGGGAGGACGATGCGGGCACAGGTTCTATCAACGTTGTCCTGAGTAATTGACCTGCAGACGACGAGCGGGAAAAAAAA [IL-4 pool 012 clone 63]” came in with a photocrosslinking rate with Interleukin-4 of 0.71 J-1 cm2.

Turning to “ATATATATGGGAGGACGATGCGGGCCGACTTTGTCACCGAGTGCATCCGAGGTCAGACGACGAGCGGGAAAAAAAA [UGT 1A3 pool 141 clone 53]”, the Kd in the data set with UGT 1A3 was 3.9 nM.

Regarding “ATATATATGGGAGGACGATGCGGCACCACTTCTTTACCTCACTCTTTCTGCAGCAGACGACGAGCGGGAAAAAAAA [UGT 1A10 pool 140 clone 45]”, the Kd in the data set with UGT 1A10 was 2.1 nM.
